Assay results: US20240067748A1 (NONA BIOSCIENCES SUZHOU, published 2024)

Target: T1, mouse Trop2-his protein (Sino Biological, #50922-M08H) (mouse, UniProt Q8BGV3 25-270)
T1 construct: bought protein; also called mouse Trop2 protein; not shown: his tag
T1 sequence (looked up): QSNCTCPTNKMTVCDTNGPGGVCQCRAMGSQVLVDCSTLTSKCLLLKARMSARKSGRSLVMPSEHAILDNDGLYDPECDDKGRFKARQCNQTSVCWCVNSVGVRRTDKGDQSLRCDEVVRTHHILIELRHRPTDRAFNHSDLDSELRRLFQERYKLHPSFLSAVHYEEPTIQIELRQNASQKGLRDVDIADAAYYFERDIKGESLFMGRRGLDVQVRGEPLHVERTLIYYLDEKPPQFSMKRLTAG
Assay: ELISA, plate coated with mouse Trop2-his protein
Experimental: An ELISA plate was coated with 100 μL of 1 μg/mL mouse Trop2-his protein (Sino Biological, #50922-M08H) in PBS at 4° C. overnight. The plate was blocked with 200 μL of PBST (PBS+0.05% tween 20)+2% BSA at 37° C. for 1 h. The plate was washed 4 times with PBST. 100 μL of Trop2 antibody diluted in a gradient (5-fold dilution, starting concentration: 33.33 nM) was added to the ELISA plate and the plate was incubated at 37° C. for 1 h. The plate was washed 4 times with PBST. 100 μL of anti-human IgG (H+L)-HRP (Sigma, #A8667) diluted in 1:4000 was added and the plate was incubated at 37° C. for 1 h. The plate was washed 4 times with PBST. 100 μL of TMB substrate (Invitrogen, #88-7025-88) was added and the plate was incubated at room temperature for 5 min, and then 50 μL of stop buffer (BBI life sciences, #E661006-0200) was added to stop the reaction. The OD450 nm reading was recorded using a microplate reader (Perkin Elmer, EnSpire).

B1: comparative example 2 antibody Tab (hRS7) (antibody, human IgG1, kappa, V domains shown)
VH: QVQLQQSGSELKKPGASVKVSCKASGYTFTNYGMNWVKQAPGQGLKWMGWINTYTGEPTYTDDFKGRFAFSLDTSVSTAYLQISSLKADDTAVYFCARGGFGSSYWYFDVWGQGSLVTVSS
VL: DIQLTQSPSSLSASVGDRVSITCKASQDVSIAVAWYQQKPGKAPKLLIYSASYRYTGVPDRFSGSGSGTDFTLTISSLQPEDFAVYYCQQHYITPLTFGAGTKVEIKR
notes: prepared on the basis of sacituzumab govitecan (ChemPartner, #T07-001); naked antibody
  binding result: no binding (tested: 33.33 nM (starting concentration))
